± gives the uncertainty stated by the source.
Experiment: self-splicing fitness, log relative to wild type (ln ratio); higher = more splicing; Tetrahymena group I intron in knt gene, E. coli kanamycin selection, DiMSum; sequences stand for … in CUCUCU…GGAGGGAAAAGUUAUCAGGCAUGCACCUGGUAGCUAGUCUUUAAACCAAUAGAUUGCAUCGGUUUAAAAGGCAAGACCGUCAAAUUGCGGGAAAGGGGUCAACAGCCGUUCAGUACCAAGUCUCAGGGGAAACUUUGAGAUGGCCUUGCAAAGGGUAUGGUAAUAAGCUGACGGACAUGGUCCUAACCACGCAGCCAAGUCCUAAGUCAACAGAUCUUCUGUUGAUAUGGAUGCAGUUCACAGACUAAAUGUCGGUCGGGGAAGAUGUAUUCUUCUCAUAAGAUAUAGUCGGACCUCUCCUUAAUGGGAGCUAGCGGAUGAAGUGAUGCAACACUGGAGCCGCUGGGAACUAAUUUGUAUGCGAAAGUAUAUUGAUUAGUUUUGGAGUACUCGUGGUCG
Method in brief: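 A randomised library covering all eight P1ex-region intron nucleotides was built with the intron in the knt kanamycin-resistance gene on pET-22b(+) and held in E. coli BL21(DE3). Cells were grown overnight at 37°C or 30°C on LB agar, with or without 25 μg/mL kanamycin, plus 100 μg/mL carbenicillin, 50 μM IPTG and 0.2% rhamnose, and pooled colonies were amplicon-sequenced on an Illumina HiSeq 2500. DiMSum fitness is the error-weighted combination of wild-type-normalised replicate fold changes, kanamycin versus none.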

Sequence	self-splicing fitness (ln) (37 °C)	self-splicing fitness (ln) (30 °C)
GCGCAGCAAUAUUACGCACG	-1.39 ± 0.3	–
GCGCAGCAAUAUUACGCACU	-1.23 ± 0.12	-1.97 ± 0.13
GCGCAGCAAUAUUACGCCUA	0.407 ± 0.16	-0.46 ± 0.24
GCGCAGCAAUAUUACGCUCA	0.238 ± 0.16	-0.576 ± 0.14
GCGCAGCAAUAUUACGCUUC	-0.419 ± 0.15	-1.97 ± 0.24
GCGCAGCAAUAUUACGGCAA	-0.814 ± 0.14	-0.734 ± 0.14
GCGCAGCAAUAUUACGGGUA	-1.59 ± 0.1	-2.4 ± 0.13
GCGCAGCAAUAUUACGGUUG	-3.34 ± 0.19	-2.53 ± 0.1
GCGCAGCAAUAUUACGUAAA	0.263 ± 0.12	0.442 ± 0.089
GCGCAGCAAUAUUACGUACA	-0.256 ± 0.088	-1.49 ± 0.084
GCGCAGCAAUAUUACGUAGG	-0.551 ± 0.086	-0.838 ± 0.061
GCGCAGCAAUAUUACGUCCC	0.234 ± 0.2	-1.14 ± 0.3
GCGCAGCAAUAUUACGUCUA	-0.321 ± 0.079	-0.763 ± 0.07
GCGCAGCAAUAUUACGUUAG	-2.26 ± 0.18	-4.26 ± 0.2
GCGGAGCAAUAUUACGAACC	–	-1.32 ± 0.35
GCGGAGCAAUAUUACGAGAU	-1.94 ± 0.4	-2.21 ± 0.27
GCGGAGCAAUAUUACGAGCG	0.152 ± 0.35	-1.01 ± 0.17
GCGGAGCAAUAUUACGAUCA	-1.56 ± 0.32	-2.43 ± 0.41
GCGGAGCAAUAUUACGAUCG	-1.12 ± 0.3	-0.357 ± 0.25
GCGGAGCAAUAUUACGAUGG	-1.02 ± 0.32	-1.16 ± 0.26
GCGGAGCAAUAUUACGAUUC	-1.09 ± 0.15	-1.32 ± 0.12
GCGGAGCAAUAUUACGCAUC	-1.81 ± 0.35	-4.01 ± 0.27
GCGGAGCAAUAUUACGCCGU	–	-1.4 ± 0.28
GCGGAGCAAUAUUACGCCUC	-1.06 ± 0.36	-3.43 ± 0.38
GCGGAGCAAUAUUACGCGUC	-3.2 ± 0.25	-3.26 ± 0.18
GCGGAGCAAUAUUACGCUCG	–	-2.94 ± 0.43

Sequence	self-splicing fitness (ln) (37 °C)	self-splicing fitness (ln) (30 °C)
GCGGAGCAAUAUUACGGAGA	-1.71 ± 0.41	-2.07 ± 0.2
GCGGAGCAAUAUUACGGAUC	-0.528 ± 0.17	-0.472 ± 0.083
GCGGAGCAAUAUUACGGUAA	-2.7 ± 0.31	-3.29 ± 0.26
GCGGAGCAAUAUUACGGUAG	–	-2.77 ± 0.23
GCGGAGCAAUAUUACGGUAU	-2.95 ± 0.26	-3.38 ± 0.24
GCGGAGCAAUAUUACGGUGC	–	-3.56 ± 0.49
GCGGAGCAAUAUUACGGUGU	-3.11 ± 0.35	-3.36 ± 0.23
GCGGAGCAAUAUUACGUAAG	-0.951 ± 0.19	-3.35 ± 0.33
GCGGAGCAAUAUUACGUCCA	-0.822 ± 0.32	-2.88 ± 0.33
GCGGAGCAAUAUUACGUCCG	-0.455 ± 0.25	-0.898 ± 0.32
GCGGAGCAAUAUUACGUGAU	-1.42 ± 0.3	-2.01 ± 0.47
GCGGAGCAAUAUUACGUUGA	-2.31 ± 0.32	-2.63 ± 0.32
GCGUAGCAAUAUUACGAGUA	-0.623 ± 0.13	-1.64 ± 0.16
GCGUAGCAAUAUUACGAGUG	-1.19 ± 0.21	-1.78 ± 0.15
GCGUAGCAAUAUUACGAUAC	-0.893 ± 0.12	-1.95 ± 0.12
GCGUAGCAAUAUUACGCACU	0.255 ± 0.2	-3.02 ± 0.24
GCGUAGCAAUAUUACGCUAA	-2.25 ± 0.21	-3.9 ± 0.27
GCGUAGCAAUAUUACGCUGA	-3.19 ± 0.3	–
GCGUAGCAAUAUUACGCUGU	–	-3.16 ± 0.28
GCGUAGCAAUAUUACGCUUA	-2.06 ± 0.32	–
GCGUAGCAAUAUUACGGGGU	-1.86 ± 0.12	-3.95 ± 0.19
GCGUAGCAAUAUUACGGGUA	-0.91 ± 0.098	-1.56 ± 0.11
GCGUAGCAAUAUUACGGUCG	-1.07 ± 0.27	-0.963 ± 0.16
GCGUAGCAAUAUUACGGUGC	-2.95 ± 0.47	-3.73 ± 0.32
GCGUAGCAAUAUUACGGUUA	-0.119 ± 0.09	-0.359 ± 0.1
GCGUAGCAAUAUUACGUAAU	-0.693 ± 0.32	–

Sequence	self-splicing fitness (ln) (37 °C)	self-splicing fitness (ln) (30 °C)
GCGUAGCAAUAUUACGUCCU	-0.8 ± 0.15	-1.47 ± 0.14
GCGUAGCAAUAUUACGUCGU	-2.04 ± 0.18	-2.13 ± 0.12
GCGUAGCAAUAUUACGUUAC	-2.37 ± 0.32	-2.56 ± 0.23
GCGUAGCAAUAUUACGUUCU	-1.38 ± 0.15	-2.08 ± 0.13
GCUAAGCAAUAUUACGAAGC	-0.413 ± 0.23	-3.24 ± 0.25
GCUAAGCAAUAUUACGAAGU	-3.01 ± 0.34	-3.47 ± 0.17
GCUAAGCAAUAUUACGACGU	0.155 ± 0.19	-0.0363 ± 0.17
GCUAAGCAAUAUUACGACUU	-0.0273 ± 0.098	-0.326 ± 0.09
GCUAAGCAAUAUUACGAGGG	-1.64 ± 0.16	-2.18 ± 0.14
GCUAAGCAAUAUUACGAUCA	-0.823 ± 0.093	-1.29 ± 0.11
GCUAAGCAAUAUUACGAUCU	0.178 ± 0.14	-0.886 ± 0.13
GCUAAGCAAUAUUACGAUUU	0.0848 ± 0.075	-0.73 ± 0.065
GCUAAGCAAUAUUACGCACU	0.421 ± 0.11	-0.54 ± 0.071
GCUAAGCAAUAUUACGCCGG	-1.33 ± 0.19	-2.65 ± 0.2
GCUAAGCAAUAUUACGCUGC	–	-3.12 ± 0.34
GCUAAGCAAUAUUACGCUUU	-1.71 ± 0.15	-3.06 ± 0.15
GCUAAGCAAUAUUACGGAAC	-0.743 ± 0.1	-1.46 ± 0.093
GCUAAGCAAUAUUACGGCCA	-1.58 ± 0.2	-0.635 ± 0.2
GCUAAGCAAUAUUACGGCUU	-0.973 ± 0.16	-0.732 ± 0.1
GCUAAGCAAUAUUACGGGAC	-1.53 ± 0.14	-2.81 ± 0.13
GCUAAGCAAUAUUACGGGCG	0.183 ± 0.14	-0.341 ± 0.12
GCUAAGCAAUAUUACGGGGU	-3.04 ± 0.25	-2.06 ± 0.18
GCUAAGCAAUAUUACGUCAU	0.727 ± 0.12	-1.7 ± 0.095
GCUAAGCAAUAUUACGUGAG	-0.28 ± 0.071	-0.321 ± 0.06
GCUAAGCAAUAUUACGUGCC	-2.35 ± 0.23	-3.59 ± 0.24
GCUAAGCAAUAUUACGUGCG	0.103 ± 0.1	-1.07 ± 0.086
